Experiments:
Assay in all cases: biochemical
Format in all cases: biochemical
266 human kinases [1] = molecular target: T1, 266 human kinases (Homo sapiens, UniProt Q13188); details: MST2(h); 100 μM
T1 sequence (Q13188 1-491): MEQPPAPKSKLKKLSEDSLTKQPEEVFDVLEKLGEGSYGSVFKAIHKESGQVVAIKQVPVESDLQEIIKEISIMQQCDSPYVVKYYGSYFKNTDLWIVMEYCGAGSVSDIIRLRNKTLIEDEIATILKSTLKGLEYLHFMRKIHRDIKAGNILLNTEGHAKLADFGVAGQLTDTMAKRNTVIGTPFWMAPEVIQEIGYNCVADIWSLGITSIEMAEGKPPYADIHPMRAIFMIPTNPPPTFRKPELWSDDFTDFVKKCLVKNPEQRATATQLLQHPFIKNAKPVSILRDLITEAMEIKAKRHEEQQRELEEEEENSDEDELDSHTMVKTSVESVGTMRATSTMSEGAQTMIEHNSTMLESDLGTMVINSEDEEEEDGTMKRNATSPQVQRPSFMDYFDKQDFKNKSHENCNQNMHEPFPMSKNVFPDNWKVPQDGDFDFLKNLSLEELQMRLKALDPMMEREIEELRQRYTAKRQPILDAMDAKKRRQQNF
Summary of the method: (§1)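 Steps: kinase transfers radiolabelled phosphate from ATP onto a positively charged substrate; the substrate is trapped on a negatively charged filter; bound radioactivity is counted by scintillation and compared with uninhibited (100%) activity.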

266 human kinases [2] = molecular target: 266 human kinases (Homo sapiens, UniProt P45984); details: JNK2α2(h); 100 μM
Summary of the method: as §1

266 human kinases [3] = molecular target: 266 human kinases (Homo sapiens, UniProt O96017); details: CHK2(h); 100 μM
Summary of the method: as §1

266 human kinases [4] = molecular target: T2, 266 human kinases (Homo sapiens, UniProt Q8IW41); details: PRAK(h); 100 μM
T2 sequence (Q8IW41 1-473): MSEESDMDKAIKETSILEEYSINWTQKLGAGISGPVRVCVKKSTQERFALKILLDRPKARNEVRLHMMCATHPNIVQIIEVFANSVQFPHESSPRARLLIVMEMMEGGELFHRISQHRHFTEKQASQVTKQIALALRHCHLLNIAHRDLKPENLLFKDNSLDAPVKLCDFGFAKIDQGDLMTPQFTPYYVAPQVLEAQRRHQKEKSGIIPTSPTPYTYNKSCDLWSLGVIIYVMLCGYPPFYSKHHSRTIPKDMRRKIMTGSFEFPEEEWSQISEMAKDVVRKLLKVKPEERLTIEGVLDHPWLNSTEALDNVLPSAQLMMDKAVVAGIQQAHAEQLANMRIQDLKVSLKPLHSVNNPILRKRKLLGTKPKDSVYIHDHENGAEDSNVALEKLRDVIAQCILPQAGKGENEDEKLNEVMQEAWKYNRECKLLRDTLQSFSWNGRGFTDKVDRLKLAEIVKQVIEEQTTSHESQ
Summary of the method: as §1

266 human kinases [5] = molecular target: 266 human kinases (Homo sapiens, UniProt Q16832); details: DDR2(h); 100 μM
Summary of the method: as §1

266 human kinases [6] = molecular target: T3, 266 human kinases (Homo sapiens, UniProt Q9HBY8); details: SGK2(h); 100 μM
T3 sequence (Q9HBY8 whole entry, looked up): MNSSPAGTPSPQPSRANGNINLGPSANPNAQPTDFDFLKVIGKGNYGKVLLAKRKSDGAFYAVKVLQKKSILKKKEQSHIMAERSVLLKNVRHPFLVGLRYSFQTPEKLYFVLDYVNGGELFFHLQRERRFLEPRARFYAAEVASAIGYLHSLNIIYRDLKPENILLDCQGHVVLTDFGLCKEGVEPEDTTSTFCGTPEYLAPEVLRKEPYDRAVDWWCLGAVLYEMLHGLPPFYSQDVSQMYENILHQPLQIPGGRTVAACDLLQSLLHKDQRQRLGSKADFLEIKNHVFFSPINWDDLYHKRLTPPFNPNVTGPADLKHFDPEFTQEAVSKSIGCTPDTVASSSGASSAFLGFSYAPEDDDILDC
Summary of the method: as §1

266 human kinases [7] = molecular target: 266 human kinases (Homo sapiens, UniProt Q9NYY3); details: Snk(h); 100 μM
Summary of the method: as §1

266 human kinases [8] = molecular target: 266 human kinases (Homo sapiens, UniProt Q00526); details: CDK3/cyclinE(h); 100 μM
Summary of the method: as §1

266 human kinases [9] = molecular target: 266 human kinases (Homo sapiens, UniProt P35916); details: Flt4(h); 100 μM
Summary of the method: as §1

Chain of 266 human kinases (Homo sapiens, UniProt Q16832) (Q16832 22-855): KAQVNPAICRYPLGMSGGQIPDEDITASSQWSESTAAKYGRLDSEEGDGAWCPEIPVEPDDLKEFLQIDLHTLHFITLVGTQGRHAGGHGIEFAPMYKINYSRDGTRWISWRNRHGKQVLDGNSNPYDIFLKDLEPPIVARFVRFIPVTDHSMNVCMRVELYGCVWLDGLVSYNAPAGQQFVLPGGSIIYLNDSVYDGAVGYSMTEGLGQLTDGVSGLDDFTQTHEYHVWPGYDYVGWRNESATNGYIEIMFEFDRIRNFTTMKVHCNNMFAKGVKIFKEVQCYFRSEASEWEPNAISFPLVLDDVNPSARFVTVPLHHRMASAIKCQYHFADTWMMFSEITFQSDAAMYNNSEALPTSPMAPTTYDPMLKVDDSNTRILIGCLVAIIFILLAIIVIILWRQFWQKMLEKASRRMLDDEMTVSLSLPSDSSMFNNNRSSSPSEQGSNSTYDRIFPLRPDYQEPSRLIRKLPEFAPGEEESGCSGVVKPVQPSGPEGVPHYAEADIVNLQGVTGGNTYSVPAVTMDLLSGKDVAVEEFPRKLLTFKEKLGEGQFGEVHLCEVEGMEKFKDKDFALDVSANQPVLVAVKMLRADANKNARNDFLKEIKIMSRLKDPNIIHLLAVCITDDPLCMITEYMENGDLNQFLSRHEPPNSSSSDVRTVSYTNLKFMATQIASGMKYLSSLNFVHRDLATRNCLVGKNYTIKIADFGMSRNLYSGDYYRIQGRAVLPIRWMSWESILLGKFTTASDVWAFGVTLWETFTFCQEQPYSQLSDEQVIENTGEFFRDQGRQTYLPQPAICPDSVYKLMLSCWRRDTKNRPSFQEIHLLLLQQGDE
Chain of 266 human kinases (Homo sapiens, UniProt Q00526) (Q00526 whole entry): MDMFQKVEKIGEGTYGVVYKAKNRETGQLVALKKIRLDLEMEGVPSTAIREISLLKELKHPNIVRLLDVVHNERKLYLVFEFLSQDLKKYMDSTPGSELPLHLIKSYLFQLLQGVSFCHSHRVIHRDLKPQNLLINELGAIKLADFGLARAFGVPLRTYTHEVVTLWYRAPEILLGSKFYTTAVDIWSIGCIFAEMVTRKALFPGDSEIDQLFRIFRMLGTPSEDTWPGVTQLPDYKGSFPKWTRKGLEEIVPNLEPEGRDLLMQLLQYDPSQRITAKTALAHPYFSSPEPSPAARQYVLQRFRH
Chain of 266 human kinases (Homo sapiens, UniProt O96017) (O96017 whole entry): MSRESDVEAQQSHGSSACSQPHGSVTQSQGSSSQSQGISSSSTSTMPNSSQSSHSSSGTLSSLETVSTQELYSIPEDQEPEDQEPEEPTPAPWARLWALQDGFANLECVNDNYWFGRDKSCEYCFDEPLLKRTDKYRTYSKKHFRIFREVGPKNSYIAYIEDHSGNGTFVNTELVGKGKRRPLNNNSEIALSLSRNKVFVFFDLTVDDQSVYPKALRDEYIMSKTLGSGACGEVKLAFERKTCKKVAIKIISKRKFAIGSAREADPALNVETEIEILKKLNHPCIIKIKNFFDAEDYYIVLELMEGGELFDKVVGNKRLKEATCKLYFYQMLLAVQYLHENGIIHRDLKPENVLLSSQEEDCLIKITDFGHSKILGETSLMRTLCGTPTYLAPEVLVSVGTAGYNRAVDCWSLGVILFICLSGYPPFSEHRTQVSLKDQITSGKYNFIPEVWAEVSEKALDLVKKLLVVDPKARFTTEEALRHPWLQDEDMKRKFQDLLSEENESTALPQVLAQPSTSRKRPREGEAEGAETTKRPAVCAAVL
Chain of 266 human kinases (Homo sapiens, UniProt P35916) (P35916 25-1363): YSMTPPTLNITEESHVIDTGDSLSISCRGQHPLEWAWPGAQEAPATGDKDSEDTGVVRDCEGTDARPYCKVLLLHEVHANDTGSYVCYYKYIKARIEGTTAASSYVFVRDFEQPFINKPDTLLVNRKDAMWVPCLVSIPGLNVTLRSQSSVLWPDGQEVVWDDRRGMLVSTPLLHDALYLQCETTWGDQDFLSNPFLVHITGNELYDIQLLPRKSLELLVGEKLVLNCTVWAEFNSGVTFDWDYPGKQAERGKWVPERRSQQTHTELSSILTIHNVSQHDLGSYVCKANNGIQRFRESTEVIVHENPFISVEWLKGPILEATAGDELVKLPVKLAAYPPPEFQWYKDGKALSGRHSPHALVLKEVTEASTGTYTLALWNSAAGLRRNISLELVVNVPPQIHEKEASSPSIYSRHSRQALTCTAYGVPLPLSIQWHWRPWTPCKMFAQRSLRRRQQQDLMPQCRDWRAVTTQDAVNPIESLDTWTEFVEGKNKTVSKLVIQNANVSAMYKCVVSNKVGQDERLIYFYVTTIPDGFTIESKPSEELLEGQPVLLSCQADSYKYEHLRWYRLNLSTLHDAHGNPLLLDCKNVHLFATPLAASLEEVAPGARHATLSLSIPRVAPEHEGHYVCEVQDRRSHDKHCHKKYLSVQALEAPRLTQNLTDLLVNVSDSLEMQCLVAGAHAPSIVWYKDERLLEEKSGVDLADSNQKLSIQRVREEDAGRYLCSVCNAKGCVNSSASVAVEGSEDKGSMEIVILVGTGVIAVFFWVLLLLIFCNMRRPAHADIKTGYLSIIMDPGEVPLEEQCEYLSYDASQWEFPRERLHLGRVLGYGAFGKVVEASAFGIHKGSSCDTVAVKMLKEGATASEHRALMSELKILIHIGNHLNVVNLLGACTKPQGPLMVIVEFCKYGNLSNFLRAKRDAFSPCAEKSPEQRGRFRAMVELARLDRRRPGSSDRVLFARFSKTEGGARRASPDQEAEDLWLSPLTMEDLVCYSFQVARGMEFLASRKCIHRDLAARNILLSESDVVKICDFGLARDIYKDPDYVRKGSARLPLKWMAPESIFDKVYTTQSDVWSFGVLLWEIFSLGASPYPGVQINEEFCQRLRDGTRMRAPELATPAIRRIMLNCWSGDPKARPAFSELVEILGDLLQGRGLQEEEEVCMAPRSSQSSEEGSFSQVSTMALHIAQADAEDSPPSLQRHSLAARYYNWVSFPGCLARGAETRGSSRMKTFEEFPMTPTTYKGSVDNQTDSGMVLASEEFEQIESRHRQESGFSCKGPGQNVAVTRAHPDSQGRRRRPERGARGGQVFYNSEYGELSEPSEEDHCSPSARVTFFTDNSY
Chain of 266 human kinases (Homo sapiens, UniProt Q9NYY3) (Q9NYY3 whole entry): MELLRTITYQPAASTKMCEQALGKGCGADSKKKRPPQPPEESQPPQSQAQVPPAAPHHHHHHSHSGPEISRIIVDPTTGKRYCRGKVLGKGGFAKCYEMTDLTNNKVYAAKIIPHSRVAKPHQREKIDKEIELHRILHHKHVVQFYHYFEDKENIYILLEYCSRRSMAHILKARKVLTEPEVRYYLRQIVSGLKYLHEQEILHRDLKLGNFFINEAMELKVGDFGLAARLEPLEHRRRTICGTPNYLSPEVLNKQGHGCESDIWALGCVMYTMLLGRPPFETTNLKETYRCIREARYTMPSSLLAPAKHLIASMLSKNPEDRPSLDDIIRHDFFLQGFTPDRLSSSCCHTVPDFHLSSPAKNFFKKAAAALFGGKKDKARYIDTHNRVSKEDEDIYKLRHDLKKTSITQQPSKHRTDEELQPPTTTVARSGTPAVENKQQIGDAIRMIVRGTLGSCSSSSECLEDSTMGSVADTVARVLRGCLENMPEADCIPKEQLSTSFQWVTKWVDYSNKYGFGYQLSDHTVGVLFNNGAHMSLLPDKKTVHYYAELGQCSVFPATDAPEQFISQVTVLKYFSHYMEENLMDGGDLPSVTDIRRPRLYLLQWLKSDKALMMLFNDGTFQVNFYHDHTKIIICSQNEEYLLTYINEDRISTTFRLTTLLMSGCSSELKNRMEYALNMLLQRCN

Question: With “HRRIKAWLKKIKALARQLGVAA (mammal) [MMI-0500]” as the sequence, how does the “% activity” value (266 human kinases [1]) read?
Answer: The value was 2%.

Question: And the “% activity” value (266 human kinases [2])?
Answer: Its value is 81%.

Question: And the “% activity” value (266 human kinases [3])?
Answer: Its value is 13%.

Question: What about the “% activity” value (266 human kinases [4]) of the same sequence?
Answer: The value was 95%.

Question: What about the “% activity” value (266 human kinases [5]) of the same sequence?
Answer: Its value is 79%.

Question: And the “% activity” value (266 human kinases [6])?
Answer: Its value is −1%.

Question: What about the “% activity” value (266 human kinases [7]) of the same sequence?
Answer: The value was 122%.

Question: What about the “% activity” value (266 human kinases [8]) of the same sequence?
Answer: The value was 8%.

Question: And the “% activity” value (266 human kinases [9])?
Answer: Its value is 73%.
